# Assays:
# [1] = target: ephrinB2-Fc chimaera (human ephrin-B2 residues 1-229, IEGRMD linker, human IgG1 residues 100-330) (human) (UniProt P52799); test: SDS-PAGE without reduction and boiling
# [2] = target: ephrinB3-Fc chimaera (human ephrin-B3 residues 28-224, IEGRMD linker, human IgG1 residues 100-330) (human) (UniProt Q15768); test: SDS-PAGE without reduction and boiling
# [3] = target: soluble NiVMY G ectodomain used for structural determination (residues 72-602, His tag) (Nipah virus Malaysia (NiVMY)) (UniProt Q9IH62); test: negative-stain electron microscopy; soluble NiVMY G ectodomain alone
# soluble NiVMY G ectodomain used for structural determination (residues 72-602, His tag), sequence (Q9IH62 72-602): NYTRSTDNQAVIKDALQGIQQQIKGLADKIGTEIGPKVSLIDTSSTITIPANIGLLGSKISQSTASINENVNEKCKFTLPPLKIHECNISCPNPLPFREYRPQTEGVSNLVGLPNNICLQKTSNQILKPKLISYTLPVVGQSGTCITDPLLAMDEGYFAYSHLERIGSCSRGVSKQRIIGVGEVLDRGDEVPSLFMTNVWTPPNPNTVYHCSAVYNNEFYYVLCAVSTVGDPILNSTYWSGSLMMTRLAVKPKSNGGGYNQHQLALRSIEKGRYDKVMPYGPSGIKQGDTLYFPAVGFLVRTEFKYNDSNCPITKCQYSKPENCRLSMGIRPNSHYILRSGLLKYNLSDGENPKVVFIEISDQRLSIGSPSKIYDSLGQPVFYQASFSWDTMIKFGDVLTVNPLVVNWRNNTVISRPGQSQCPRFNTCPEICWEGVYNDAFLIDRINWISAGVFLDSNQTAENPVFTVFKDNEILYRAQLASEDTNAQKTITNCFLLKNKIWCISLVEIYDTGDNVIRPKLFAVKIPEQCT
# ephrinB3-Fc chimaera (human ephrin-B3 residues 28-224, IEGRMD linker, human IgG1 residues 100-330), sequence (Q15768 28-224): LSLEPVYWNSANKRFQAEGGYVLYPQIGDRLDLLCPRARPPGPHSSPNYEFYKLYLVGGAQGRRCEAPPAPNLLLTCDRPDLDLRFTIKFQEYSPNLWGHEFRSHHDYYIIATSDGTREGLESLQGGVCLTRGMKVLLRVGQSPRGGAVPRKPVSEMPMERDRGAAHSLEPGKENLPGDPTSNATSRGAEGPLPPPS
# ephrinB2-Fc chimaera (human ephrin-B2 residues 1-229, IEGRMD linker, human IgG1 residues 100-330), sequence (P52799 28-229): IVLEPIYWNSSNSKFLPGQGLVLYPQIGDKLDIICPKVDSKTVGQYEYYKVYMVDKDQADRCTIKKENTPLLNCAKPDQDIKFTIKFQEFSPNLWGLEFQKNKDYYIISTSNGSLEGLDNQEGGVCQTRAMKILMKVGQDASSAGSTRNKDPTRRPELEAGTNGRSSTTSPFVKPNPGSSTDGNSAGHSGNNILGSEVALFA
substance,measurement,setting,value
"ephrinB2-Fc chimaera (human ephrin-B2 residues 1-229, IEGRMD linker, human IgG1 residues 100-330) (from UniProt P52799 28-229) (Fc fusion)",stoichiometry N,[1],2
"ephrinB3-Fc chimaera (human ephrin-B3 residues 28-224, IEGRMD linker, human IgG1 residues 100-330) (from UniProt Q15768 28-224) (Fc fusion)",stoichiometry N,[2],2
"soluble NiVMY G ectodomain used for structural determination (residues 72-602, His tag) (from UniProt Q9IH62 72-602) (domain or fragment)",stoichiometry N,[3],4
